Read-outs that look alike come from different tables or passages of the source. Values belong to the substance of their own block, whether it stands above or below them.
Columns and labels:
[1] = biological target: long CD6 peptide phosphorylated at Y629 (human); test: SPR; biotinylated long CD6 peptides immobilised at ~50 response units on streptavidin-coated CM5 chips, BIAcore 3000; SH2 domains injected at 10 μl/min at 37°C; equilibrium binding, 1:1 Langmuir
[2] = biological target: long CD6 peptide phosphorylated at Y629 and Y662 (human); test: as above
[3] = biological target: SLP-76 proline-rich motif (Homo sapiens) (UniProt Q13094); conditions: cited from earlier work
[4] = biological target: long CD6 peptide phosphorylated at Y662 (human); test: SPR; biotinylated long CD6 peptides immobilised at ~50 response units on streptavidin-coated CM5 chips, BIAcore 3000; SH2 domains injected at 10 μl/min at 37°C; equilibrium binding, 1:1 Langmuir
SLP-76 = SLP-76 (UniProt Q13094); test: CD6 MAb immunoprecipitation, Western blot; conditions: reference: wild-type CD6-EGFP; sites Y662
[5] = biological target: SLP-76 proline-rich motif (Homo sapiens) (UniProt Q13094); conditions: cited from earlier work; remark: listed apart in the source
GADS = GADS (UniProt O75791); test: CD6 MAb immunoprecipitation, Western blot; conditions: reference: wild-type CD6-EGFP; sites Y629

Chain of long CD6 peptide phosphorylated at Y629 and Y662 (human) (P30203 622-668): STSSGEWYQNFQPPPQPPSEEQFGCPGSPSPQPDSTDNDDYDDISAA
Chain of long CD6 peptide phosphorylated at Y662 (human) (P30203 622-668): as above
Chain of long CD6 peptide phosphorylated at Y629 (human) (P30203 622-668): as above
Chain of GADS C-terminal SH3 (O75791 271-330): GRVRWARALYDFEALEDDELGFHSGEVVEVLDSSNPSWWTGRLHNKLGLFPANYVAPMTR
Chain of GRB2 C-terminal SH3 (P62993 156-215): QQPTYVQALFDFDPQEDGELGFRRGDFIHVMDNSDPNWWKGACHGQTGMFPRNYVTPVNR

Substance: GADS SH2 domain, His-tagged (from UniProt O75791 58-149) (domain or fragment)
Kd [1]: 200 to 600 nM
Kd [2]: 100 to 2000 nM

Substance: GRB2 C-terminal SH3 (from UniProt P62993)
Kd [3]: 10 µM

Substance: GADS C-terminal SH3 (from UniProt O75791)
Kd [5]: 200 nM

Second part, the substance after the results:

Kd [4]: 300 to 2000 nM
Kd [2]: 300 to 2000 nM
Substance: SLP-76 SH2 domain, His-tagged (from UniProt Q13094 422-530) (domain or fragment)

binding against the reference (SLP-76): weaker
Substance: CD6 (from UniProt P30203) Y662F

binding against the reference (GADS): weaker
Substance: CD6 (from UniProt P30203) Y629F

— PMC5440646, “T Cell Costimulation by CD6 Is Dependent on Bivalent Binding of a GADS/SLP-76 Complex” (Molecular and Cellular Biology, 2017)
